Results on 1 molecule are retold here after patent US20100135996A1 (INSTITUT NATIONAL DE LA SANTE ET DE LA RECHERCHE MEDICALE …, published 2010).

The test concerns the target T1, human Anti-Mullerian Hormone type II receptor (AMHR-II) (human, UniProt Q16671 18-573).
T1 construct: whole, on cells; In the western blot it was the same protein in reduced SDS-PAGE lysates of xenografts of these cells; also called hAMHR-II
T1 sequence (looked up): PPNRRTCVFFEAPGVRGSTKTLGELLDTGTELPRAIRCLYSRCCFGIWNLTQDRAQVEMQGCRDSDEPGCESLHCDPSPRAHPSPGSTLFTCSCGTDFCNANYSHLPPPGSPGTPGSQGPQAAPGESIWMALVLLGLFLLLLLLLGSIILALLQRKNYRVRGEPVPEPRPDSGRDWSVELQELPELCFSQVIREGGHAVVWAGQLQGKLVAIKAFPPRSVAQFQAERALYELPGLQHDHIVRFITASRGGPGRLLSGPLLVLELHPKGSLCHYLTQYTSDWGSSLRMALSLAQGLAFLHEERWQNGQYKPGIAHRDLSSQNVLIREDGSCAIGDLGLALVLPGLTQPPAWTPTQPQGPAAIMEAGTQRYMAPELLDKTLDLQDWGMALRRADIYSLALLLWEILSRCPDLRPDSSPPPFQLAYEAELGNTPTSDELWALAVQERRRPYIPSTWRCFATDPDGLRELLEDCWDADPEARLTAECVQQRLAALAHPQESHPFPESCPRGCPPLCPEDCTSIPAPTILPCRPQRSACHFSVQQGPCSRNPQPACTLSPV
In words: flow cytometry of hybridoma supernatants on AMHR-II positive cells. For orientation: In flow cytometry, cells or beads pass a laser one at a time.

B1: anti-AMHR-II mAb 12G4 (antibody, mouse IgG1, V domains shown)
VH: QVQLQQSGPELVKPGASVRMSCKASGYTFTSYHIHWVKQRPGQGLEWIGWIYPGDDSTKYNEKFKGKTTLTADKSSSTAYMLLSSLTSEDSAIYFCTRGDRFAYWGQGTLVTVSA
VL: QIVLTQSPAIMSASLGEGITLTCSASSSVRYIHWYQQKSGTSPKLLIYSTSNLASGVPSRFSGSGSGTFHSLTISSVEAEDAADYYCLQWSSYPWTFGGGTKLEIK
notes: also called antibody of hybridoma CNCM I-3673
As for B1, the binding result is given as “binds”.
